Measurements as given in patent US20230374526A1, “FORSKOLIN-INDUCIBLE PROMOTERS AND HYPOXIA-INDUCIBLE PROMOTERS” (ASKLEPIOS BIOPHARMACEUTICAL, INC., priority 2020, published 2023).

Experiments:
HEK-293 cells = assay: Optimum inducer concentration to induce expression; assay type: cell-based, human
[1] = cited from earlier work
CHO-GS-KSV1 cell line = assay: SEAP expression from forskolin-inducible promoters in stably transfected cell line, forskolin or NKH477 induction; assay type: cell-based, chinese hamster; details: for Promoter strength ranking: SEAP, stably transfected CHO-GS-KSV1
Procedure: The forskolin-inducible promoters were then tested in a stably transfected CHO-GS-KSV1 cell line.
Cell suspensions of 6×10^5 cells per mL were incubated on an orbital shaker set at 8% CO2, 20% O2, 37° C., 85% relative humidity and 140 rpm overnight. 2.86×10^7 cells were centrifuged at 200 g for 3 minutes. Media was then aspirated and cell pellet resuspended in 2 mL fresh CD-CHO media to obtain a concentration of 1.43×10^7 cells per mL. 700 μL of cell suspension was added to each of two electroporation cuvettes each containing […] of linearised DNA in 100 μL of sterile TE buffer (Thermofisher, 12090015). Each cuvette was electroporated, delivering a single pulse of 300V, 900 μF with resistance to infinity. Immediately after delivery of pulse electroplated cells were transferred to Erlenmeyer 125 mL flask containing 20 mL of CD-CHO media pre-warmed to 37° C. Electroporated cells from two cuvettes are combined into a single 125 mL flask to generate one pool of cells. Cells are cultured on an orbital shaker set at 8% CO2, 20% O2, 37° C., 85% relative humidity and 140 rpm. Cells are transferred to fresh CD-CHO media 24 hours after transfection and cell cultures monitored and given fresh CD-CHO media every 2-4 days. Usually after about 10-14 days cell numbers will be high enough to start passaging. […]
The promoter activity and inducibility of FMP-02, FORCSV-10, FOR-CMC-009, and FLP-01 were also tested in the stably transfected CHO-GS-KSV1 cell line. […] After this point, the SEAP activity in the medium was assessed as described below.
SEAP Reporter Gene Assay, chemiluminescent (Roche, CAT #11 779 842 001) was used to measure SEAP activity as per the manufacturer's protocol. […] The signal is then read at 477 nm and compared to a calibration curve. […]

HEK293-F cells = assay: Luciferase expression from forskolin-inducible promoters, transient transfection, forskolin induction; assay type: cell-based, human; details: transiently transfected HEK293-F, 20 μM forskolin
Procedure: Luciferase readouts were normalised to β-galactosidase to produce normalised relative luminometer units (RLUs). β-galactosidase containing pcDNA6 plasmid was used as internal control for transfection efficiency (Thermofisher, V22020). β-galactosidase activity was measured as per manufacturer's instructions (Mammalian pGalactosidase Assay Kit, 75707/75710, Thermo Scientific) using 25 μl of lysate. 25 μl of lysate was transferred into a microplate well and mixed with 25 μl of β-galactosidase Assay Reagent, equilibrated to room temperature. The mixture was incubated at 37° C. for 30 min and absorbance measured at 405 nm.
The tested promoters were synthesised directly upstream of the ATG of PM-RQ plasmid and the suspension cell lines were transiently transfected with the PM-RQ plasmid.
40 ml of cells were grown in a 250 ml vented Erlenmeyer flask (Sigma-Aldrich CLS431144) at 37° C., 20% O2, 8% CO2 with agitation at 100 rpm. Cells were seeded as described in the manufacturer's instructions (300,000 cells/ml). HEK293-F were obtained from Thermofisher, R79007.
One day before transfection, the cells were counted using a haemocytometer and split to 500,000 cells/ml. […]
24 hours after transfection, the promoters were induced by addition of 20 μM forskolin and luciferase activity was measured 0, 3, 5 and 24 hours after induction. Luciferase activity was measured as described below. […]

Molecule: C=C[C@@]1(C)CC(=O)[C@]2(O)[C@@]3(C)[C@@H](O)CCC(C)(C)[C@@H]3[C@H](OC(=O)CCN(C)C)[C@H](OC(C)=O)[C@@]2(C)O1.Cl [NKH 477]
- Concentration determined to be optimum to induce expression (HEK-293 cells): about 8 μM
- Water solubility [1]: water-soluble
- Potency as inducer of the promoters compared with forskolin (CHO-GS-KSV1 cell line; 7.2 μM NKH477 vs 20 μM forskolin): slightly more potent inducer

B1: FMP-02: synthetic forskolin-inducible promoter, SEQ ID NO: 41; 8×AP1(1) TFBS with MinTK minimal promoter (nucleic acid)
DNA: TGAGTCAGATGATGCGTAGCTAGTAGTTGAGTCAGATGATGCGTAGCTAGTAGTTGAGTCAGATGATGCGTAGCTAGTAGTTGAGTCAGATGATGCGTAGCTAGTAGTTGAGTCAGATGATGCGTAGCTAGTAGTTGAGTCAGATGATGCGTAGCTAGTAGTTGAGTCAGATGATGCGTAGCTAGTAGTTGAGTCAGTAGTCGTATGCTGATGCGCAGTTAGCGTAGCTGAGGTACCGTCGACGATATCGGATCCTTCGCATATTAAGGTGACGCGTGTGGCCTCGAACACCGAGCGACCCTGCAGCGACCCGCTTAA
modifications: Synp-FMP-02
notes: 8×AP1(1) TFBS with MinTK minimal promoter
- Promoter strength ranking (CHO-GS-KSV1 cell line): weakest
- Promoter strength ranking (fold induction) (HEK293-F cells): weakest

B2: FLP-01: synthetic forskolin-inducible promoter, SEQ ID NO: 42; 8×AP1(1) TFBS with G6PC minimal promoter (nucleic acid)
DNA: TGAGTCAGATGATGCGTAGCTAGTAGTTGAGTCAGATGATGCGTAGCTAGTAGTTGAGTCAGATGATGCGTAGCTAGTAGTTGAGTCAGATGATGCGTAGCTAGTAGTTGAGTCAGATGATGCGTAGCTAGTAGTTGAGTCAGATGATGCGTAGCTAGTAGTTGAGTCAGATGATGCGTAGCTAGTAGTTGAGTCAGTAGTCGTATGCTGATGCGCAGTTAGCGTAGCTGAGGTACCGTCGACGATATCGGATCCGGGCATATAAAACAGGGGCAAGGCACAGACTCATAGCAGAGCAATCACCACCAAGCCTGGAATAACTGCAGCCACC
modifications: Synp-FLP-01
notes: 8×AP1(1) TFBS with G6PC minimal promoter
- Promoter strength ranking (CHO-GS-KSV1 cell line): strongest
- Promoter strength ranking (fold induction) (HEK293-F cells): strongest
